Laboratory results reported in publication PMC9811540.

Biological target: UltraID-δ opioid receptor fusion protein (UniProt P41143)
Experiment: proximity labelling; test selection on live Expi293F cells expressing UltraID-DOR; 0.1 nM DTK-DNA, 0.1 nM Met-Enk-RF-DNA, 100 nM non-ligand DNA, biotin 2 μM, ATP 50 μM, 30 minutes; lysis with 1% SDS, streptavidin beads, qPCR

Row | Substance | fold enrichment over non-ligand DNA
1 | Met-Enk-RF, DNA-linked (peptide) | 40 fold
2 | Dmt-Tic-Lys (DTK), DNA-linked (peptide) | 280 fold
